Assay results reported in paper PMC5493969.

Molecular target: MBP + FGFR2 31-406 (ECD + TM) (human) (UniProt P21802)
Experiment: SEC; main elution fraction (1.5 M NaCl, 0.1% DDM) of a heparin affinity column loaded first with FGF1 and then with refolded MBP-FGFR2 ECD + TM, run on size exclusion chromatography; peaks analysed by SDS-PAGE and western blot (anti-MBP, anti-His-tag)

- stoichiometry N: 2
Substance: MBP + FGFR2 31-406 (ECD + TM) (from UniProt P21802 31-406) (domain or fragment)
